According to the supplement of paper PMC7877785:
± gives the uncertainty stated by the source.

Experiment: self-splicing fitness, log relative to wild type (ln ratio); higher = more splicing; Tetrahymena group I intron in knt gene, E. coli kanamycin selection, DiMSum; sequences stand for … in CUCUCU…GGAGGGAAAAGUUAUCAGGCAUGCACCUGGUAGCUAGUCUUUAAACCAAUAGAUUGCAUCGGUUUAAAAGGCAAGACCGUCAAAUUGCGGGAAAGGGGUCAACAGCCGUUCAGUACCAAGUCUCAGGGGAAACUUUGAGAUGGCCUUGCAAAGGGUAUGGUAAUAAGCUGACGGACAUGGUCCUAACCACGCAGCCAAGUCCUAAGUCAACAGAUCUUCUGUUGAUAUGGAUGCAGUUCACAGACUAAAUGUCGGUCGGGGAAGAUGUAUUCUUCUCAUAAGAUAUAGUCGGACCUCUCCUUAAUGGGAGCUAGCGGAUGAAGUGAUGCAACACUGGAGCCGCUGGGAACUAAUUUGUAUGCGAAAGUAUAUUGAUUAGUUUUGGAGUACUCGUGGUCG
Summary of the method: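 Colonies from six replicate transformations of E. coli BL21(DE3) were pooled and amplicon-sequenced on an Illumina HiSeq 2500. The library placed an intron with all eight P1ex-region nucleotides randomised inside the knt kanamycin-resistance gene on pET-22b(+), and cells grew overnight at 37°C or 30°C on LB agar with or without 25 μg/mL kanamycin (plus 100 μg/mL carbenicillin, 50 μM IPTG, 0.2% rhamnose). Fitness is the DiMSum error-weighted combination of wild-type-normalised replicate fold changes, kanamycin versus none.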

AGUGAGCAAUAUUACGUGAU
self-splicing fitness (ln) (30 °C): -2.87 ± 0.26 | self-splicing fitness (ln) (37 °C): -2.74 ± 0.34

CGCCAGCAAUAUUACGACGA
self-splicing fitness (ln) (30 °C): -2.77 ± 0.15 | self-splicing fitness (ln) (37 °C): -1.48 ± 0.14

AGUGAGCAAUAUUACGAUGU
self-splicing fitness (ln) (30 °C): -3.64 ± 0.3 | self-splicing fitness (ln) (37 °C): -2.51 ± 0.25

CGUAAGCAAUAUUACGAGGG
self-splicing fitness (ln) (30 °C): -2.74 ± 0.19 | self-splicing fitness (ln) (37 °C): -1.86 ± 0.24

AAGGAGCAAUAUUACGCGCA
self-splicing fitness (ln) (30 °C): -1.82 ± 0.18 | self-splicing fitness (ln) (37 °C): -0.97 ± 0.2

CUGUAGCAAUAUUACGACCG
self-splicing fitness (ln) (30 °C): -0.99 ± 0.34 | self-splicing fitness (ln) (37 °C): 0.0218 ± 0.25

ACCCAGCAAUAUUACGCUGC
self-splicing fitness (ln) (30 °C): -3.77 ± 0.26 | self-splicing fitness (ln) (37 °C): -2.88 ± 0.27

CUUUAGCAAUAUUACGUGAC
self-splicing fitness (ln) (30 °C): -1.42 ± 0.19 | self-splicing fitness (ln) (37 °C): -1.53 ± 0.29

UCAGAGCAAUAUUACGUUUC
self-splicing fitness (ln) (30 °C): -3.15 ± 0.23 | self-splicing fitness (ln) (37 °C): -3.04 ± 0.38

CUGGAGCAAUAUUACGCGUG
self-splicing fitness (ln) (30 °C): -3.27 ± 0.15 | self-splicing fitness (ln) (37 °C): 0.32 ± 0.12

UAGUAGCAAUAUUACGACCU
self-splicing fitness (ln) (30 °C): -0.902 ± 0.11 | self-splicing fitness (ln) (37 °C): 0.242 ± 0.11

CGUUAGCAAUAUUACGGCGU
self-splicing fitness (ln) (30 °C): -3.75 ± 0.31 | self-splicing fitness (ln) (37 °C): -0.556 ± 0.19

GGCCAGCAAUAUUACGGGUA
self-splicing fitness (ln) (30 °C): -0.772 ± 0.064 | self-splicing fitness (ln) (37 °C): -0.783 ± 0.071

GAUGAGCAAUAUUACGUCCU
self-splicing fitness (ln) (37 °C): -1.84 ± 0.49

UCUGAGCAAUAUUACGAUAG
self-splicing fitness (ln) (30 °C): -3.28 ± 0.18 | self-splicing fitness (ln) (37 °C): -1.93 ± 0.18

UUCGAGCAAUAUUACGCAGG
self-splicing fitness (ln) (30 °C): -2.48 ± 0.27 | self-splicing fitness (ln) (37 °C): -1.82 ± 0.23

CCUUAGCAAUAUUACGACAC
self-splicing fitness (ln) (30 °C): -2 ± 0.14 | self-splicing fitness (ln) (37 °C): -2.1 ± 0.25

CUAAAGCAAUAUUACGACCG
self-splicing fitness (ln) (30 °C): 0.565 ± 0.087 | self-splicing fitness (ln) (37 °C): 0.104 ± 0.11

UGAGAGCAAUAUUACGAGUA
self-splicing fitness (ln) (30 °C): -2.37 ± 0.49 | self-splicing fitness (ln) (37 °C): -2.16 ± 0.46

ACCAAGCAAUAUUACGCAGU
self-splicing fitness (ln) (30 °C): -3.71 ± 0.22 | self-splicing fitness (ln) (37 °C): -2.77 ± 0.28

GAACAGCAAUAUUACGACGU
self-splicing fitness (ln) (30 °C): -0.688 ± 0.064 | self-splicing fitness (ln) (37 °C): 0.167 ± 0.077

GGUUAGCAAUAUUACGAGAG
self-splicing fitness (ln) (30 °C): -2.64 ± 0.44 | self-splicing fitness (ln) (37 °C): -2.45 ± 0.39

GGGUAGCAAUAUUACGACAU
self-splicing fitness (ln) (30 °C): -0.113 ± 0.015 | self-splicing fitness (ln) (37 °C): 0.159 ± 0.034

CCCCAGCAAUAUUACGCGAC
self-splicing fitness (ln) (30 °C): -3.37 ± 0.21 | self-splicing fitness (ln) (37 °C): -2.49 ± 0.25

CAGUAGCAAUAUUACGAGGG
self-splicing fitness (ln) (30 °C): -2.85 ± 0.13 | self-splicing fitness (ln) (37 °C): -4.18 ± 0.46

GCUGAGCAAUAUUACGAGCC
self-splicing fitness (ln) (30 °C): -1.55 ± 0.43

AUCCAGCAAUAUUACGAAAG
self-splicing fitness (ln) (30 °C): -3.77 ± 0.18 | self-splicing fitness (ln) (37 °C): -2.76 ± 0.21

CGUGAGCAAUAUUACGUCUC
self-splicing fitness (ln) (30 °C): -3.22 ± 0.21 | self-splicing fitness (ln) (37 °C): -2.29 ± 0.19

AACAAGCAAUAUUACGCUGU
self-splicing fitness (ln) (30 °C): -3.38 ± 0.12 | self-splicing fitness (ln) (37 °C): -2.32 ± 0.13

CAGAAGCAAUAUUACGGAGU
self-splicing fitness (ln) (30 °C): -3.56 ± 0.28 | self-splicing fitness (ln) (37 °C): -3.14 ± 0.4

UCAGAGCAAUAUUACGAUGU
self-splicing fitness (ln) (30 °C): -1.87 ± 0.077 | self-splicing fitness (ln) (37 °C): -1.41 ± 0.093

UCUAAGCAAUAUUACGAAGC
self-splicing fitness (ln) (30 °C): -1.05 ± 0.39 | self-splicing fitness (ln) (37 °C): -1.8 ± 0.36

CUUGAGCAAUAUUACGAAUC
self-splicing fitness (ln) (30 °C): -4.03 ± 0.31 | self-splicing fitness (ln) (37 °C): -1.86 ± 0.26

GGCCAGCAAUAUUACGUGAA
self-splicing fitness (ln) (30 °C): -1.67 ± 0.066 | self-splicing fitness (ln) (37 °C): -0.271 ± 0.077

CGUCAGCAAUAUUACGCAAC
self-splicing fitness (ln) (30 °C): -3.74 ± 0.3 | self-splicing fitness (ln) (37 °C): -2.47 ± 0.23

UCCCAGCAAUAUUACGUAUC
self-splicing fitness (ln) (30 °C): -3.32 ± 0.29 | self-splicing fitness (ln) (37 °C): -1.35 ± 0.2

GUCAAGCAAUAUUACGGGAG
self-splicing fitness (ln) (30 °C): -3.23 ± 0.1 | self-splicing fitness (ln) (37 °C): -1.07 ± 0.081

CGCAAGCAAUAUUACGUUCC
self-splicing fitness (ln) (30 °C): -2.95 ± 0.15 | self-splicing fitness (ln) (37 °C): -1.06 ± 0.12
